Experimental data reported in paper PMC2575614.

Target: HLA-B*2705 heavy chain with the C-terminal sv5 epitope tag (human)
Experiment: two-dimensional gel electrophoresis (non-reducing) and immunoblot; 24-hour stimulated KG-1.B27sv5 cell lysates resolved under non-reducing conditions, immunoblot with HC10 or pK

- stoichiometry N: 2
Substance: HLA-B*2705 heavy chain with the C-terminal sv5 epitope tag (natural protein)
